# According to US20140348819A1, “Methods of Treating Cancer” (Dana-Farber Cancer Institute, Inc., priority 2011, published 2014):
# B1: Wnt1 (protein, UniProt P04628 28-370, looked up)
# Proto-oncogene Wnt-1: ANSSGRWWGIVNVASSTNLLTDSKSLQLVLEPSLQLLSRKQRRLIRQNPGILHSVSGGLQSAVRECKWQFRNRRWNCPTAPGPHLFGKIVNRGCRETAFIFAITSAGVTHSVARSCSEGSIESCTCDYRRRGPGGPDWHWGGCSDNIDFGRLFGREFVDSGEKGRDLRFLMNLHNNEAGRTTVFSEMRQECKCHGMSGSCTVRTCWMRLPTLRAVGDVLRDRFDGASRVLYGNRGSNRASRAELLRLEPEDPAHKPPSPHDLVYFEKSPNFCTYSGRLGTAGTAGRACNSSSPALDGCELLCCGRGHRTRTQRVTERCNCTFHWCCHVSCRNCTHTRVLHECL
# Test system: six V600E BRAF melanoma cell lines
# Test: Screening of recombinant RTK ligands for ability to confer resistance to BRAFi (PLX4720) or MEKi (PD184352) (Table 4)
# Assay type: cell-based, human
# Design: ability of recombinant RTK ligand to confer resistance / ability of recombinant RTK ligand to confer resistance (screening value): scale not given here
# Protocol: HGF is the only one that can substantially confer drug resistance to the cell lines.
# The complexity of the tumor microenvironment is much greater than an in vitro co-culture system. Therefore, the inventors explored whether the activation of other RTKs could result in a similar resistance as that observed with the activation of MET. To this end, six V600E BRAF melanoma cell lines were tested for their resistance to either BRAFi (PLX4720) or MEKi (PD184352) after the addition of 22 RTK ligands that have the potential of activating almost all known RTKs. […] The activation of a selected subset of these RTKs was confirmed by western blotting and by high throughput tyrosine kinase phosphorylation profiling.
molecule,measurement,setting,value
B1,ability of recombinant RTK ligand to confer resistance (screening value),"A2058, PD184352 - 1 uM, ligand 0.4 ng/ml",1.04
same,ability of recombinant RTK ligand to confer resistance (screening value),"A2058, PD184352 - 1 uM, ligand 1.6 ng/ml",0.99
same,ability of recombinant RTK ligand to confer resistance (screening value),"A2058, PD184352 - 1 uM, ligand 6.25 ng/ml",0.86
same,ability of recombinant RTK ligand to confer resistance (screening value),"A2058, PD184352 - 1 uM, ligand 25 ng/ml",0.98
same,ability of recombinant RTK ligand to confer resistance (screening value),"A2058, PD184352 - 1 uM, ligand 100 ng/ml",1.04
same,ability of recombinant RTK ligand to confer resistance (screening value),"A2058, PLX4720 - 2 uM, ligand 0.4 ng/ml",1.04
same,ability of recombinant RTK ligand to confer resistance (screening value),"A2058, PLX4720 - 2 uM, ligand 1.6 ng/ml",1.00
same,ability of recombinant RTK ligand to confer resistance (screening value),"A2058, PLX4720 - 2 uM, ligand 6.25 ng/ml",1.01
same,ability of recombinant RTK ligand to confer resistance (screening value),"A2058, PLX4720 - 2 uM, ligand 25 ng/ml",0.98
same,ability of recombinant RTK ligand to confer resistance (screening value),"A2058, PLX4720 - 2 uM, ligand 100 ng/ml",1.07
same,ability of recombinant RTK ligand to confer resistance (screening value),"C32, PD184352 - 1 uM, ligand 0.4 ng/ml",1.06
same,ability of recombinant RTK ligand to confer resistance (screening value),"C32, PD184352 - 1 uM, ligand 1.6 ng/ml",0.96
same,ability of recombinant RTK ligand to confer resistance (screening value),"C32, PD184352 - 1 uM, ligand 6.25 ng/ml",1.11
same,ability of recombinant RTK ligand to confer resistance (screening value),"C32, PD184352 - 1 uM, ligand 25 ng/ml",1.02
same,ability of recombinant RTK ligand to confer resistance (screening value),"C32, PD184352 - 1 uM, ligand 100 ng/ml",1.05
same,ability of recombinant RTK ligand to confer resistance (screening value),"C32, PLX4720 - 2 uM, ligand 0.4 ng/ml",1.13
same,ability of recombinant RTK ligand to confer resistance (screening value),"C32, PLX4720 - 2 uM, ligand 1.6 ng/ml",1.00
same,ability of recombinant RTK ligand to confer resistance (screening value),"C32, PLX4720 - 2 uM, ligand 6.25 ng/ml",1.03
same,ability of recombinant RTK ligand to confer resistance (screening value),"C32, PLX4720 - 2 uM, ligand 25 ng/ml",1.01
same,ability of recombinant RTK ligand to confer resistance (screening value),"C32, PLX4720 - 2 uM, ligand 100 ng/ml",0.95
same,ability of recombinant RTK ligand to confer resistance (screening value),"Colo 829, PD184352 - 1 uM, ligand 0.4 ng/ml",0.94
same,ability of recombinant RTK ligand to confer resistance (screening value),"Colo 829, PD184352 - 1 uM, ligand 1.6 ng/ml",0.93
same,ability of recombinant RTK ligand to confer resistance (screening value),"Colo 829, PD184352 - 1 uM, ligand 6.25 ng/ml",0.91
same,ability of recombinant RTK ligand to confer resistance (screening value),"Colo 829, PD184352 - 1 uM, ligand 25 ng/ml",0.85
same,ability of recombinant RTK ligand to confer resistance (screening value),"Colo 829, PD184352 - 1 uM, ligand 100 ng/ml",0.89
same,ability of recombinant RTK ligand to confer resistance (screening value),"Colo 829, PLX4720 - 2 uM, ligand 0.4 ng/ml",0.94
same,ability of recombinant RTK ligand to confer resistance (screening value),"Colo 829, PLX4720 - 2 uM, ligand 1.6 ng/ml",0.92
same,ability of recombinant RTK ligand to confer resistance (screening value),"Colo 829, PLX4720 - 2 uM, ligand 6.25 ng/ml",0.93
same,ability of recombinant RTK ligand to confer resistance (screening value),"Colo 829, PLX4720 - 2 uM, ligand 25 ng/ml",0.06
same,ability of recombinant RTK ligand to confer resistance (screening value),"Colo 829, PLX4720 - 2 uM, ligand 100 ng/ml",0.93
same,ability of recombinant RTK ligand to confer resistance (screening value),"G-361, PD184352 - 1 uM, ligand 0.4 ng/ml",0.99
same,ability of recombinant RTK ligand to confer resistance (screening value),"G-361, PD184352 - 1 uM, ligand 1.6 ng/ml",1.00
same,ability of recombinant RTK ligand to confer resistance (screening value),"G-361, PD184352 - 1 uM, ligand 6.25 ng/ml",0.93
same,ability of recombinant RTK ligand to confer resistance (screening value),"G-361, PD184352 - 1 uM, ligand 25 ng/ml",0.96
same,ability of recombinant RTK ligand to confer resistance (screening value),"G-361, PD184352 - 1 uM, ligand 100 ng/ml",0.93
same,ability of recombinant RTK ligand to confer resistance (screening value),"G-361, PLX4720 - 2 uM, ligand 0.4 ng/ml",0.94
same,ability of recombinant RTK ligand to confer resistance (screening value),"G-361, PLX4720 - 2 uM, ligand 1.6 ng/ml",0.97
same,ability of recombinant RTK ligand to confer resistance (screening value),"G-361, PLX4720 - 2 uM, ligand 6.25 ng/ml",1.01
same,ability of recombinant RTK ligand to confer resistance (screening value),"G-361, PLX4720 - 2 uM, ligand 25 ng/ml",0.97
same,ability of recombinant RTK ligand to confer resistance (screening value),"G-361, PLX4720 - 2 uM, ligand 100 ng/ml",0.98
same,ability of recombinant RTK ligand to confer resistance (screening value),"SK-MEL-5, PD184352 - 1 uM, ligand 0.4 ng/ml",0.02
same,ability of recombinant RTK ligand to confer resistance (screening value),"SK-MEL-5, PD184352 - 1 uM, ligand 1.6 ng/ml",0.91
same,ability of recombinant RTK ligand to confer resistance (screening value),"SK-MEL-5, PD184352 - 1 uM, ligand 6.25 ng/ml",1.06
same,ability of recombinant RTK ligand to confer resistance (screening value),"SK-MEL-5, PD184352 - 1 uM, ligand 25 ng/ml",1.02
same,ability of recombinant RTK ligand to confer resistance (screening value),"SK-MEL-5, PD184352 - 1 uM, ligand 100 ng/ml",1.14
same,ability of recombinant RTK ligand to confer resistance (screening value),"SK-MEL-5, PLX4720 - 2 uM, ligand 0.4 ng/ml",0.93
same,ability of recombinant RTK ligand to confer resistance (screening value),"SK-MEL-5, PLX4720 - 2 uM, ligand 1.6 ng/ml",0.90
same,ability of recombinant RTK ligand to confer resistance (screening value),"SK-MEL-5, PLX4720 - 2 uM, ligand 6.25 ng/ml",1.01
same,ability of recombinant RTK ligand to confer resistance (screening value),"SK-MEL-5, PLX4720 - 2 uM, ligand 25 ng/ml",0.97
same,ability of recombinant RTK ligand to confer resistance (screening value),"SK-MEL-5, PLX4720 - 2 uM, ligand 100 ng/ml",1.01
same,ability of recombinant RTK ligand to confer resistance (screening value),"SK-MEL-28, PD184352 - 1 uM, ligand 0.4 ng/ml",0.99
same,ability of recombinant RTK ligand to confer resistance (screening value),"SK-MEL-28, PD184352 - 1 uM, ligand 1.6 ng/ml",1.18
same,ability of recombinant RTK ligand to confer resistance (screening value),"SK-MEL-28, PD184352 - 1 uM, ligand 6.25 ng/ml",0.95
same,ability of recombinant RTK ligand to confer resistance (screening value),"SK-MEL-28, PD184352 - 1 uM, ligand 25 ng/ml",1.18
same,ability of recombinant RTK ligand to confer resistance (screening value),"SK-MEL-28, PD184352 - 1 uM, ligand 100 ng/ml",1.20
same,ability of recombinant RTK ligand to confer resistance (screening value),"SK-MEL-28, PLX4720 - 2 uM, ligand 0.4 ng/ml",1.02
same,ability of recombinant RTK ligand to confer resistance (screening value),"SK-MEL-28, PLX4720 - 2 uM, ligand 1.6 ng/ml",1.25
same,ability of recombinant RTK ligand to confer resistance (screening value),"SK-MEL-28, PLX4720 - 2 uM, ligand 6.25 ng/ml",0.99
same,ability of recombinant RTK ligand to confer resistance (screening value),"SK-MEL-28, PLX4720 - 2 uM, ligand 25 ng/ml",1.15
same,ability of recombinant RTK ligand to confer resistance (screening value),"SK-MEL-28, PLX4720 - 2 uM, ligand 100 ng/ml",1.25
